{"source": "patent US6274553A", "about": "“Method for stabilizing peptides and freeze-dried medicinal compositions containing peptides obtained by using the method” (Japan Energy Corporation, priority 1997, dated 2001)", "key": {"[1]": {"experiment": "Storage stability of lyophilized HV1C3 at 50° C., liquid chromatography peak area (Experiment Example 1)", "assay_type": "physicochemical", "details": "glycine, mannitol", "method": "Hirudin variant HV1C3 having the amino acid sequence shown by Sequence NO. 1 in the Sequence Table, glycine, and mannitol were dissolved in purified water to a final concentration of 6 mg/ml (0.86 mM), 6.7 mg/ml (89 mM), and 33.5 mg/ml (184 mM), respectively. The resulting solution was divided into six equal portions. These portions were adjusted to the pH shown in Table 1 with the addition of 30 mM of tartaric acid, phosphoric acid, or Tris buffer solution. The peptide solutions for which the pH was thus adjusted filtered through a 0.22 μm membrane filter. The filtrates were charged into 6 ml vials in the amount of 1 ml for each vial. 50 such vials were prepared for each pH of the solution, totaling 300 vials. All these 300 vials were lyophilized.\nThe lyophilized samples were stored in an incubator at 50° C. and removed from the incubator after 1, 2, 4, 6, 8 weeks, respectively. 1 ml of purified water was added to each vial removed. Solutions further diluted 50-fold were subjected to liquid chromatography to measure a peak area percentage of hirudin variant HV1C3 under the conditions shown in Table 2. The amount (percentage) of the hirudin variant HV1C3 remaining in the lyophilized sample, after having been stored in the incubator, compound with the amount of the hirudin variant HV1C3 contained at the beginning of the storage was determined."}, "[2]": {"experiment": "Storage stability of lyophilized HV1C3 at 60° C., tartaric acid concentration (Experiment Example 4)", "assay_type": "physicochemical", "method": "Hirudin variant HV1C3 and purified saccharose were dissolved in purified water to a final concentration of 6 mg/ml (0.866 mM) and 1.6 mg/ml (4.7 mM), respectively. The resulting solution was divided into four equal portions. Three of these portions were adjusted to pH 5.5 using 5 mM of tartaric acid, 10 mM of tartaric acid, and 30 mM of tartaric acid, respectively. Mannitol was added to a solution without pH adjustment to a concentration of 10 mg/ml (55 mM). These solutions were filtered through a 0.22 μm membrane filter. The filtrates were filled into 6 ml vials in the amount of 1 ml for each vial. 50 such vials were prepared for each pH of the solution, 200 vials in total. All these 200 vials were lyophilized.\nThe lyophilized samples were stored in an incubator at 60° C. and removed from the incubator after 1, 2, 3, 4, 5, and 6 weeks, respectively. 1 ml of purified water was added to each vial removed. The amount (percentage) of the hirudin variant HV1C3 remaining in the lyophilized sample was determined in the same manner as in Experiment Example 1."}, "[3]": {"details": "tartaric acid 0 mM, without pH adjustment, mannitol 10 mg/ml, saccharose"}, "[4]": {"details": "tartaric acid 5 mM, pH 5.5, saccharose"}, "[5]": {"details": "tartaric acid 10 mM, pH 5.5, saccharose"}, "[6]": {"details": "tartaric acid 30 mM, pH 5.5, saccharose"}}}
{"molecule": "hirudin variant HV1C3: Hirudin variant having the amino acid sequence shown by Sequence No. 1 (JP Laid-open No. 173798/1992) (protein) VVYTDCTESGQNLCLCEGSNVCGQGNKCILGSDGEKNQCVTGEGTPKPQSHNQGDFEPIPEDAYDE", "values": [{"measurement": "Remaining peptide (%) 1 wk", "setting": "[1]; pH 4.5, tartaric acid 30 mM", "result": 98.0, "unit": "%"}, {"measurement": "Remaining peptide (%) 2 wks", "setting": "[1]; pH 4.5, tartaric acid 30 mM", "result": 97.7, "unit": "%"}, {"measurement": "Remaining peptide (%) 4 wks", "setting": "[1]; pH 4.5, tartaric acid 30 mM", "result": 95.4, "unit": "%"}, {"measurement": "Remaining peptide (%) 6 wks", "setting": "[1]; pH 4.5, tartaric acid 30 mM", "result": 94.7, "unit": "%"}, {"measurement": "Remaining peptide (%) 8 wks", "setting": "[1]; pH 4.5, tartaric acid 30 mM", "result": 93.4, "unit": "%"}, {"measurement": "Remaining peptide (%) 1 wk", "setting": "[1]; pH 5.5, tartaric acid 30 mM", "result": 98.6, "unit": "%"}, {"measurement": "Remaining peptide (%) 2 wks", "setting": "[1]; pH 5.5, tartaric acid 30 mM", "result": 98.7, "unit": "%"}, {"measurement": "Remaining peptide (%) 4 wks", "setting": "[1]; pH 5.5, tartaric acid 30 mM", "result": 97.5, "unit": "%"}, {"measurement": "Remaining peptide (%) 6 wks", "setting": "[1]; pH 5.5, tartaric acid 30 mM", "result": 96.5, "unit": "%"}, {"measurement": "Remaining peptide (%) 8 wks", "setting": "[1]; pH 5.5, tartaric acid 30 mM", "result": 97.0, "unit": "%"}, {"measurement": "Remaining peptide (%) 1 wk", "setting": "[1]; pH 6.0, phosphoric acid 30 mM", "result": 98.4, "unit": "%"}, {"measurement": "Remaining peptide (%) 2 wks", "setting": "[1]; pH 6.0, phosphoric acid 30 mM", "result": 96.4, "unit": "%"}, {"measurement": "Remaining peptide (%) 4 wks", "setting": "[1]; pH 6.0, phosphoric acid 30 mM", "result": 95.1, "unit": "%"}, {"measurement": "Remaining peptide (%) 6 wks", "setting": "[1]; pH 6.0, phosphoric acid 30 mM", "result": 94.5, "unit": "%"}, {"measurement": "Remaining peptide (%) 8 wks", "setting": "[1]; pH 6.0, phosphoric acid 30 mM", "result": 93.6, "unit": "%"}, {"measurement": "Remaining peptide (%) 1 wk", "setting": "[1]; pH 7.0, Tris buffer 30 mM", "result": 95.7, "unit": "%"}, {"measurement": "Remaining peptide (%) 2 wks", "setting": "[1]; pH 7.0, Tris buffer 30 mM", "result": 92.0, "unit": "%"}, {"measurement": "Remaining peptide (%) 4 wks", "setting": "[1]; pH 7.0, Tris buffer 30 mM", "result": 86.8, "unit": "%"}, {"measurement": "Remaining peptide (%) 6 wks", "setting": "[1]; pH 7.0, Tris buffer 30 mM", "result": 72.0, "unit": "%"}, {"measurement": "Remaining peptide (%) 8 wks", "setting": "[1]; pH 7.0, Tris buffer 30 mM", "result": 70.3, "unit": "%"}, {"measurement": "Remaining peptide (%) 1 wk", "setting": "[1]; pH 7.0, phosphoric acid 30 mM", "result": 99.0, "unit": "%"}, {"measurement": "Remaining peptide (%) 2 wks", "setting": "[1]; pH 7.0, phosphoric acid 30 mM", "result": 97.3, "unit": "%"}, {"measurement": "Remaining peptide (%) 4 wks", "setting": "[1]; pH 7.0, phosphoric acid 30 mM", "result": 93.3, "unit": "%"}, {"measurement": "Remaining peptide (%) 6 wks", "setting": "[1]; pH 7.0, phosphoric acid 30 mM", "result": 92.7, "unit": "%"}, {"measurement": "Remaining peptide (%) 8 wks", "setting": "[1]; pH 7.0, phosphoric acid 30 mM", "result": 90.0, "unit": "%"}, {"measurement": "Remaining peptide (%) 1 wk", "setting": "[1]; pH 8.0, Tris buffer 30 mM", "result": 81.9, "unit": "%"}, {"measurement": "Remaining peptide (%) 2 wks", "setting": "[1]; pH 8.0, Tris buffer 30 mM", "result": 58.0, "unit": "%"}, {"measurement": "Remaining peptide (%) 1 wk", "setting": "[2]; [3]", "result": 97.0, "unit": "%"}, {"measurement": "Remaining peptide (%) 2 wks", "setting": "[2]; [3]", "result": 94.0, "unit": "%"}, {"measurement": "Remaining peptide (%) 3 wks", "setting": "[2]; [3]", "result": 92.0, "unit": "%"}, {"measurement": "Remaining peptide (%) 4 wks", "setting": "[2]; [3]", "result": 91.0, "unit": "%"}, {"measurement": "Remaining peptide (%) 5 wks", "setting": "[2]; [3]", "result": 87.8, "unit": "%"}, {"measurement": "Remaining peptide (%) 6 wks", "setting": "[2]; [3]", "result": 86.5, "unit": "%"}, {"measurement": "Remaining peptide (%) 1 wk", "setting": "[2]; [4]", "result": 98.8, "unit": "%"}, {"measurement": "Remaining peptide (%) 2 wks", "setting": "[2]; [4]", "result": 98.6, "unit": "%"}, {"measurement": "Remaining peptide (%) 3 wks", "setting": "[2]; [4]", "result": 97.6, "unit": "%"}, {"measurement": "Remaining peptide (%) 4 wks", "setting": "[2]; [4]", "result": 97.5, "unit": "%"}, {"measurement": "Remaining peptide (%) 5 wks", "setting": "[2]; [4]", "result": 97.0, "unit": "%"}, {"measurement": "Remaining peptide (%) 6 wks", "setting": "[2]; [4]", "result": 96.9, "unit": "%"}, {"measurement": "Remaining peptide (%) 1 wk", "setting": "[2]; [5]", "result": 98.5, "unit": "%"}, {"measurement": "Remaining peptide (%) 2 wks", "setting": "[2]; [5]", "result": 98.1, "unit": "%"}, {"measurement": "Remaining peptide (%) 3 wks", "setting": "[2]; [5]", "result": 97.2, "unit": "%"}, {"measurement": "Remaining peptide (%) 4 wks", "setting": "[2]; [5]", "result": 96.9, "unit": "%"}, {"measurement": "Remaining peptide (%) 5 wks", "setting": "[2]; [5]", "result": 96.4, "unit": "%"}, {"measurement": "Remaining peptide (%) 6 wks", "setting": "[2]; [5]", "result": 96.1, "unit": "%"}, {"measurement": "Remaining peptide (%) 1 wk", "setting": "[2]; [6]", "result": 97.9, "unit": "%"}, {"measurement": "Remaining peptide (%) 2 wks", "setting": "[2]; [6]", "result": 96.8, "unit": "%"}, {"measurement": "Remaining peptide (%) 3 wks", "setting": "[2]; [6]", "result": 96.1, "unit": "%"}, {"measurement": "Remaining peptide (%) 4 wks", "setting": "[2]; [6]", "result": 94.7, "unit": "%"}, {"measurement": "Remaining peptide (%) 5 wks", "setting": "[2]; [6]", "result": 94.1, "unit": "%"}, {"measurement": "Remaining peptide (%) 6 wks", "setting": "[2]; [6]", "result": 93.5, "unit": "%"}]}
